What all share (test): pull-down; in vitro; GST-tagged proteins bound to glutathione resin as bait, MBP-tagged proteins incubated with them; about 2 ug of each protein; immunoblot with anti-myc or anti-MBP
What all share (conditions): both partners purified

One assay concerns the target T1, GST-UBP12 (full-length) (Arabidopsis thaliana, UniProt Q9FPT1 1-1116).
T1 construct: UBP12 (ubiquitin-specific protease 12), Arabidopsis thaliana, At5g06600; full length (1-1116 by the limits printed for its N and C derivatives); not shown: GST, N-terminal, kept
T1 sequence (looked up): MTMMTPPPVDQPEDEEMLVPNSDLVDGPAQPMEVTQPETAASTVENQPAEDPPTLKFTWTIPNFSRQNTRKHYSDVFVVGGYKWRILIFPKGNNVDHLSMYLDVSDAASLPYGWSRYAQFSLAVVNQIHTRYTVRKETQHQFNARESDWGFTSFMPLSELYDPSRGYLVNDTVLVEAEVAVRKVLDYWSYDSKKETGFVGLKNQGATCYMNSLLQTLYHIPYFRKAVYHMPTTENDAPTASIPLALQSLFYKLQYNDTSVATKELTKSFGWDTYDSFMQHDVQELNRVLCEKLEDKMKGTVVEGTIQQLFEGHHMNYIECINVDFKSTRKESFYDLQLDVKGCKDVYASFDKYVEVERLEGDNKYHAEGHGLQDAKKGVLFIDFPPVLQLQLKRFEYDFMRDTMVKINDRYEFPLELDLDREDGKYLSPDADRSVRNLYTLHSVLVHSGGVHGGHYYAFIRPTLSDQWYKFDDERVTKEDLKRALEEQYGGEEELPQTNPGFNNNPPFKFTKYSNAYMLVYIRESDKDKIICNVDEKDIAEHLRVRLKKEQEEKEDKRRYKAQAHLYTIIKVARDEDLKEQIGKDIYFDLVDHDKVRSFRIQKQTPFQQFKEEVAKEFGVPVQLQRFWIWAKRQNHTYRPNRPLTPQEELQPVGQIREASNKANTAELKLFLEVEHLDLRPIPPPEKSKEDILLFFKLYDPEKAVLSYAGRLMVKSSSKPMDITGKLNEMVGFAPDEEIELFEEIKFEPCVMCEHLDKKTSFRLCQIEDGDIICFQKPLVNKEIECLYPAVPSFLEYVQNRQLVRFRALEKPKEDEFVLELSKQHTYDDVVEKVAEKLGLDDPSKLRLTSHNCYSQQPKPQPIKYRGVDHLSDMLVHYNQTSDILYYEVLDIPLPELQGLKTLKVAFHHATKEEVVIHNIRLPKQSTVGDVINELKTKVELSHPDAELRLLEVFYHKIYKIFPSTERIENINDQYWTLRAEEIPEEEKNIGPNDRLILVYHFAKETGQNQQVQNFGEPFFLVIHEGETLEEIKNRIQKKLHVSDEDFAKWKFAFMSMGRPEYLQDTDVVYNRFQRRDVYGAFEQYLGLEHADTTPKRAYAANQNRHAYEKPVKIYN

The next assay deals with T2, GST-UBP13 (full-length) (Arabidopsis thaliana, UniProt Q84WU2 1-1115).
T2 construct: UBP13 (ubiquitin-specific protease 13), Arabidopsis thaliana, At3g11910; full length
T2 sequence (looked up): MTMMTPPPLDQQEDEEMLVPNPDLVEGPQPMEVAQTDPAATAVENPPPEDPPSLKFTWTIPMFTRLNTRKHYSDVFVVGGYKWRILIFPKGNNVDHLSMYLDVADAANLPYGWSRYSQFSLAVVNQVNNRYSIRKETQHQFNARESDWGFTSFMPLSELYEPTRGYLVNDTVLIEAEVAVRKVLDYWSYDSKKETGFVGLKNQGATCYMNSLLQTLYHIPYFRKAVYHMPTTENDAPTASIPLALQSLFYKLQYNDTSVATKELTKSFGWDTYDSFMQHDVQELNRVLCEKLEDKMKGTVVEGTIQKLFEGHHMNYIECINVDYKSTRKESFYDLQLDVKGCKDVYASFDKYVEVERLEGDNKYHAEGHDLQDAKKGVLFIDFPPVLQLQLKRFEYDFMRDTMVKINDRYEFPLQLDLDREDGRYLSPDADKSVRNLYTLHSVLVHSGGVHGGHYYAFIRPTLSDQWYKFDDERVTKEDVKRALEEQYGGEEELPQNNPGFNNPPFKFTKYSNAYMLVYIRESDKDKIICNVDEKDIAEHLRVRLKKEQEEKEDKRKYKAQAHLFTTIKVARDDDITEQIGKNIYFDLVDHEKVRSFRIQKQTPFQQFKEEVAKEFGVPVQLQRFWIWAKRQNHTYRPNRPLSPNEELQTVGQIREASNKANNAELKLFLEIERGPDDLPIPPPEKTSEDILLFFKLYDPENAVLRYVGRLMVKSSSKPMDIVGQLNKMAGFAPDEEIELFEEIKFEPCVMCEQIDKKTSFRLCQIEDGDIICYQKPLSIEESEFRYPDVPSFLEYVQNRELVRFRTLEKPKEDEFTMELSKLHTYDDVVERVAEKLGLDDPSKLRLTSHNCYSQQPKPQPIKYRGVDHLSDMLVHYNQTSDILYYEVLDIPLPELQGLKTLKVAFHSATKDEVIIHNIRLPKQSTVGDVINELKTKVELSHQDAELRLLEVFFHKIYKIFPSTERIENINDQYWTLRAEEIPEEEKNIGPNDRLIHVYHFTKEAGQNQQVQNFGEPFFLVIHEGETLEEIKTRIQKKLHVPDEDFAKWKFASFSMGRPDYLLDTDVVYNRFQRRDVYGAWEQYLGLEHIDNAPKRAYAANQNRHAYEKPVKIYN

Assay [1] concerns the target T3, GST-UBP12-N (N-terminal region of UBP12, amino acids 1–541) (Arabidopsis thaliana, UniProt Q9FPT1 1-541).
T3 construct: UBP12, Arabidopsis thaliana, At5g06600; N-terminal region, amino acids 1-541, with the MATH domain and the cysteine/histidine-containing catalytic domain
T3 sequence (looked up): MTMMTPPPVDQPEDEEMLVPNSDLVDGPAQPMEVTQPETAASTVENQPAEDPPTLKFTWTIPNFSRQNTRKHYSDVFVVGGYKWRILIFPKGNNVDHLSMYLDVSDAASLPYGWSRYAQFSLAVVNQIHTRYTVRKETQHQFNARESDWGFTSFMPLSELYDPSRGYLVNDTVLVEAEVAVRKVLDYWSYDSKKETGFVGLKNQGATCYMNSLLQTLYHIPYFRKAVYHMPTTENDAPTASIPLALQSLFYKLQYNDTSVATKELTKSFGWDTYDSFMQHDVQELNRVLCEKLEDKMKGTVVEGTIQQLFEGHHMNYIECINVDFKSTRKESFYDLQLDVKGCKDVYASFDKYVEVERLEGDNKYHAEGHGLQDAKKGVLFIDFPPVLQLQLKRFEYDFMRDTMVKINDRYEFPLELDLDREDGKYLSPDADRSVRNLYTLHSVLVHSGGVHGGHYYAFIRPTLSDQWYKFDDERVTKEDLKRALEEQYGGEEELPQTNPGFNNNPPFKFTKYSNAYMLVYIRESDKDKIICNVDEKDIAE

B1: MBP-BZR1-myc (BRASSINAZOLE RESISTANT1) (natural protein, Arabidopsis thaliana, UniProt Q8S307 1-336, looked up)
chain: MTSDGATSTSAAAAAAAAAAARRKPSWRERENNRRRERRRRAVAAKIYTGLRAQGDYNLPKHCDNNEVLKALCVEAGWVVEEDGTTYRKGCKPLPGEIAGTSSRVTPYSSQNQSPLSSAFQSPIPSYQVSPSSSSFPSPSRGEPNNNMSSTFFPFLRNGGIPSSLPSLRISNSCPVTPPVSSPTSKNPKPLPNWESIAKQSMAIAKQSMASFNYPFYAVSAPASPTHRHQFHTPATIPECDESDSSTVDSGHWISFQKFAQQQPFSASMVPTSPTFNLVKPAPQQMSPNTAAFQEIGQSSEFKFENSQVKPWEGERIHDVGMEDLELTLGNGKARG
notes: BZR1 (BRASSINAZOLE RESISTANT1), Arabidopsis thaliana, At1g75080; source: E. coli BL21 (DE3) pLysS, purified (amylose resin); not shown: MBP, N-terminal, kept; 6x myc, C-terminal, kept
For B1, the binding result with GST-UBP12 (full-length) and with GST-UBP13 (full-length) was “binds” in each case.

B2: MBP-BES1-myc (BRI1-EMS-SUPPRESSOR 1) (natural protein, Arabidopsis thaliana, UniProt Q9LN63 1-335, looked up)
chain: MTSDGATSTSAAAAAAAMATRRKPSWRERENNRRRERRRRAVAAKIYTGLRAQGNYNLPKHCDNNEVLKALCSEAGWVVEEDGTTYRKGHKPLPGDMAGSSSRATPYSSHNQSPLSSTFDSPILSYQVSPSSSSFPSPSRVGDPHNISTIFPFLRNGGIPSSLPPLRISNSAPVTPPVSSPTSRNPKPLPTWESFTKQSMSMAAKQSMTSLNYPFYAVSAPASPTHHRQFHAPATIPECDESDSSTVDSGHWISFQKFAQQQPFSASMVPTSPTFNLVKPAPQQLSPNTAAIQEIGQSSEFKFENSQVKPWEGERIHDVAMEDLELTLGNGKAHS
notes: BES1 (BRI1-EMS-SUPPRESSOR 1), Arabidopsis thaliana, At1g19350; source: E. coli BL21 (DE3) pLysS, purified (amylose resin); not shown: MBP, N-terminal, kept; 6x myc, C-terminal, kept
Take B2: the binding result (with GST-UBP12 (full-length); in the assay with GST-UBP13 (full-length); in assay [1]) was “binds” in each case.

These data come from PMC9483116, “Deubiquitination of BES1 by UBP12/UBP13 promotes brassinosteroid signaling and plant growth” (Plant Communications, 2022).
